Assay results published in US20170332622A1, “COMPOSITIONS AND METHODS FOR PRESERVATION AND STORAGE OF BIOLOGICAL MATERIALS” (The University of North Carolina at Charlotte, priority 2016, published 2017).
Where two headings read alike, the source gives them in different places.

What was measured:
[1] = Solubility of lysozyme by turbidimetric assay (absorbance at 600 nm); type: physicochemical
Method: Initial solubility studies were performed on the model protein lysozyme in water. Samples having known concentrations were prepared by weighing the lysozyme and adding the appropriate amount of water to get the desired concentration in mg/mL. The samples were gently inverted several times and stored at room temperature for 1 hour to overnight to allow the protein to rehydrate. Solubility limits were determined via turbidimetric assay.
The samples were then placed in a Biotek Synergy plate reader and absorbance was measured from 200 nm to 900 nm. As FIG. 1 illustrates, lysozyme has a characteristic […] at 280 nm that can be used along with Beer-Lambert's law to measure the concentration, however, for samples above 5 mg/mL, the instrument sensor becomes saturated and the readings are not useful for determining concentration. Therefore, to determine solubility limits, the absorbance at 600 nm was used to indicate the presence of aggregate or particulate in suspension. At this wavelength, far from the characteristic absorbance, any increase in absorbance is an indicator that the protein is not completely in solution. A baseline was established by measuring the absorbance of pure water or TCH solution without any lysozyme. Samples were measured in triplicate and the averages are plotted in the accompanying figures.
To determine the effect of TCH on the solubility of lysozyme, values for the solubility of lysozyme in TCH formulations as a function of water content were obtained. […] There is a characteristic peak proximate 280 nm that can be used can be used along with Beer-Lambert's law to determine concentrations, however, the spectra is near zero away from this peak.

[2] = Thermal stability of lysozyme in TCH by differential scanning calorimetry; type: physicochemical
Method: TCH solutions were prepared, water was added, and the water content was measured using Karl Fischer titration until the desired solutions were achieved. Lysozyme was weighed into the container and the appropriate amount of TCH was added to achieve a solution with a concentration of approximately 1 mg/mL. Samples were gently inverted several times and left at room temperature for one hour or overnight to allow the lysozyme to rehydrate and go into solution. Some samples were dried by evaporative drying and rehydrated prior to scanning Another sample of lysozyme in 0.1M sodium acetate buffer pH 4 was prepared for comparison.
To determine the stability of lysozyme in TCH over time, a set of samples was prepared at stable moisture contents and stored at the appropriate humidity at room temperature for a period of five weeks. These samples were prepared with a protein concentration of 10 mg/mL prior to storage. After five weeks, they were diluted to approximately 1 mg/mL and scanned using differential scanning calorimetry (DSC).
A Micro-cal VP DSC was used for determining the thermal stability of the protein. A baseline was established by scanning the TCH solution without protein at least three times until repeatability was evident. The TCH solutions used for the baseline scans are identical to the sample solutions, without protein. The baseline scans of the solutions without protein help eliminate noise resultant from variation in the sample cells. […] The concentration of lysozyme in each sample was verified prior to scanning by reading the absorbance at 280 nm on the Biotek Synergy plate reader. […]
The DSC thermal traces were fit in OriginPro with a non-two-state model that includes an output of both calorimetric enthalpy and Van't Hoff enthalpy, Hv. The calorimetric enthalpy is determined by the area under the curve and depends on the selected baseline as well as the normalized concentration. […] The number of intermediate steps in the unfolding process can be determined by taking the ratio of calorimetric enthalpy to Van't Hoff enthalpy. […]

[3] = in NaH2PO4; cited from earlier work
[4] = cited from earlier work

Molecule	solubility ([1]; in TCH 1:4 compositions, all water content levels tested (0.01 to 0.70 grams water per gram dry weight))	solubility (in words) ([1]; in TCH solutions)	solubility (no indication of solubility issues up to maximum concentration tested) ([1]; in pure water) [mg/mL]	absorbance at 600 nm ([1]; lysozyme in TCH solutions, each sample measured)	degradation after storage ([2]; five weeks of storage in stable TCH solutions, moisture content and/or humidity controlled, room temperature)	thermal unfolding temperature, stored versus fresh samples ([2]; stored five weeks in TCH, DSC)	thermal unfolding temperature ([2]; versus weight percent of TCH in solution, DSC)	ratio of calorimetric to Van't Hoff enthalpies [3]	solubility limit ([4]; 10° C.)	solubility limit ([4]; 20° C.)	water content corresponding to solubility limit ([4]; 20° C.)	solubility limit ([4]; 40° C.)	solubility limit, as water content ([4]; pure trehalose) [% water by weight]
lysozyme	at least 40 mg/mL	readily soluble	≥ 200	below 0.05	no sign of degradation	slightly higher unfolding temperature	increases with increasing concentrations of TCH	~1	–	–	–	–	–
OC[C@H]1O[C@H](O[C@H]2O[C@H](CO)[C@@H](O)[C@H](O)[C@H]2O)[C@H](O)[C@@H](O)[C@@H]1O [trehalose]	–	–	–	–	–	–	–	–	42.3 % (grams trehalose per gram solution)	46.6 % (grams trehalose per gram solution)	53.4 % (grams water per gram solution)	59.7 % (grams trehalose per gram solution)	53
